Data published in patent US20200299396A1 (BALIOPHARMA, published 2020).

T1: human TNFR1 on the cellular surface of HeLa, HT1080 and Kym-1 cells (human, UniProt P19438 30-455)
T1 sequence: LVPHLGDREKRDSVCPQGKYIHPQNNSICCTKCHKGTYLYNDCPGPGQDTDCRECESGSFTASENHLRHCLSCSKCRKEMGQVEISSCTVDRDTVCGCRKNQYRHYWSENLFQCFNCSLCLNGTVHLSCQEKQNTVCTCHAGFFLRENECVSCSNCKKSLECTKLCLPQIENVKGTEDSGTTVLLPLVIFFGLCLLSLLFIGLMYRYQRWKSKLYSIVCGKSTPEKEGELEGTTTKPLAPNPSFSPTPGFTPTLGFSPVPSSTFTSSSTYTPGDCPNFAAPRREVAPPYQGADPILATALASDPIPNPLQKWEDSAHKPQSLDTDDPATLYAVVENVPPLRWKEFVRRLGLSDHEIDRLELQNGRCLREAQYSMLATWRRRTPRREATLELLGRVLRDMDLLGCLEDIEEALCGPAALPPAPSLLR

T2: Recombinant human TNFR1-Fc fusion protein (human, UniProt P19438 30-211, limits assumed)
T2 construct: not shown: Fc part
T2 sequence: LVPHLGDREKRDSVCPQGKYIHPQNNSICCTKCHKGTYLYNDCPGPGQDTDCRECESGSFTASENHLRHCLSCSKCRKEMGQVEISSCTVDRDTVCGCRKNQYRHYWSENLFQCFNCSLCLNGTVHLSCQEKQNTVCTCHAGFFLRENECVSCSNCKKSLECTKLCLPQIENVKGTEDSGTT

T3: human Fcγ receptor IIb (human, UniProt P31994 46-217, limits assumed)
T3 construct: also called FcγRIIb
T3 sequence (looked up): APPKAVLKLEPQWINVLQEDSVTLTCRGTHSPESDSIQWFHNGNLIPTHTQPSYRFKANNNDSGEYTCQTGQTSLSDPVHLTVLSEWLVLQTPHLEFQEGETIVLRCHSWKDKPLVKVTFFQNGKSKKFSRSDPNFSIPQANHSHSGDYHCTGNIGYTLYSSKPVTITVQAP


Experiments:
[1] = biological target: T1, human TNFR1 on the cellular surface of …; test: cell-based or functional assay
[2] = biological target: T2, Recombinant human TNFR1-Fc fusion …; test: ELISA under equilibrium conditions, TNFR1-Fc coated; ELISA under equilibrium conditions
Procedure: (§1) Microtiter plates were coated with 100 μl of TNFR1-Fc fusion protein (1 μg/ml in PBS) and incubated at 4° C. overnight. The residual binding sites were blocked with 2% MPBS (skim milk in PBS, 200 μl per well) at room temperature for 2 hours and subsequently washed twice with PBS. 100 μl of the samples diluted in 2% MPBS were incubated at room temperature for 1 hour prior to the last incubation step with 100 μl of the HRP conjugated detection antibodies in 2% MPBS. Bound protein was detected with 100 μl TMB substrate solution (1 mg/ml 3,3′,5,5′-Tetramethylbenzidine[TMB], 0.006% H₂O₂ in 100 mM Na-acetate buffer, pH 6 at RT), the HRP-reaction was stopped by the addition of 50 μl 1 M H₂SO₄ and the absorption at the wavelength of 450 nm was measured using the Infinite microtiter plate reader (TECAN, Maennedorf, Switzerland). Between each incubation step and in advance of the detection, the plates were washed twice times with PBST and twice with PBS.

human Fcγ receptor IIIa = biological target: T4, human Fcγ receptor IIIa (human, UniProt P08637 17-208, limits assumed); test: ELISA, antibody immobilized, human FcγRIII added, n=2; concentration not shown
T4 construct: also called human FcγRIII; FcγRIII

[3] = biological target: T2, Recombinant human TNFR1-Fc fusion …; test: ELISA under equilibrium conditions, TNFR1-Fc coated
Procedure: as §1

[4] = biological target: T2, Recombinant human TNFR1-Fc fusion …; test: QCM at 37 C, TNFR1-Fc immobilized at ~94 ΔHz, 1:1 binding algorithm; quartz crystal microbalance, TNFR1 immobilized at ~94 ΔHz
Procedure: Real-time binding dynamics in protein-protein interactions were determined by quartz crystal microbalance measurements (Cell-200 C-Fast, Attana, Stockholm, Sweden). One of the binding partners (TNFR1-Fc) was chemically immobilized on a LNB Carboxyl Sensor Chip (3623-3103, Attana, Stockholm, Sweden) according to the manufacturer's protocol at a moderate density of ˜94 ΔHz. Binding experiments were performed with samples (analyte) diluted in PBST (PBS, 0.1% Tween 20) between 128 nM and 4 nM (1:2 dilution steps) at pH 7.4 with a flow rate of 25 μl/min at 37° C. The chip was regenerated with 25 μl 20 mM glycine, pH 2.0. Every third measurement, an injection of running buffer was measured which was subtracted from the binding curve prior to data analysis. Data were collected using the software provided by Attana and analyzed by Attaché Office Evaluation software (Attana, Stockholm, Sweden) and TraceDrawe (ridgview instruments, Vange, Sweden).

human Fcγ receptor IIb = biological target: T3, human Fcγ receptor IIb; test: ELISA, antibody immobilized, human FcγRIIb added, n=2; concentration not shown
[5] = biological target: T1, human TNFR1 on the cellular surface of …; test: cell-based or functional assay; remark: listed apart in the source
human Fcγ receptor Ia = biological target: T5, human Fcγ receptor Ia (human, UniProt P12314 16-288, limits assumed); test: ELISA, antibody immobilized, human FcγRI added, n=2; concentration not shown
T5 construct: also called human FcγRI; FcγRI

complement protein C1q = biological target: T6, complement protein C1q (UniProt P02745 23-245; P02746 28-253; P02747 29-245); test: ELISA, antibody immobilized, C1q added, n=2; concentration not shown
T6 construct: also called C1q Complement protein
T6 sequence (P02745 23-245 limits assumed, chain 1 of 3): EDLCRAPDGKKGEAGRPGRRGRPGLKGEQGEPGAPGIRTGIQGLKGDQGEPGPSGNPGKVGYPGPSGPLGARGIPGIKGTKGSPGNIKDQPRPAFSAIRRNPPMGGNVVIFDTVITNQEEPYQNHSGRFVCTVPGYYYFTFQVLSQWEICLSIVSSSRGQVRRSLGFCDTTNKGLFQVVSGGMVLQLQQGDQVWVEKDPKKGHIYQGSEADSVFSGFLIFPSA
T6 sequence (P02746 28-253 limits assumed, chain 2 of 3): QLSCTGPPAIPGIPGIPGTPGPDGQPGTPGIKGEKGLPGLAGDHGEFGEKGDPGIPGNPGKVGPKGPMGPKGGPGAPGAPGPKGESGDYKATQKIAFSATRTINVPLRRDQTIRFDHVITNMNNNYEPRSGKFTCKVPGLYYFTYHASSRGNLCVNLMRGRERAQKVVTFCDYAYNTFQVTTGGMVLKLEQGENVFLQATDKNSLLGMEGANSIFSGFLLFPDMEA
T6 sequence (P02747 29-245 limits assumed, chain 3 of 3): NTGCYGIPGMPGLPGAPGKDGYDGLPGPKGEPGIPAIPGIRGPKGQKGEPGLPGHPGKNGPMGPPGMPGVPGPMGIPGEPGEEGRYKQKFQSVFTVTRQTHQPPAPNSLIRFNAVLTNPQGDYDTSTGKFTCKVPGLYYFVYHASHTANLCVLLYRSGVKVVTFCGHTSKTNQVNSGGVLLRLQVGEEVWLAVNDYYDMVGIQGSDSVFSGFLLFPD

T4 sequence (P08637 17-208 limits assumed): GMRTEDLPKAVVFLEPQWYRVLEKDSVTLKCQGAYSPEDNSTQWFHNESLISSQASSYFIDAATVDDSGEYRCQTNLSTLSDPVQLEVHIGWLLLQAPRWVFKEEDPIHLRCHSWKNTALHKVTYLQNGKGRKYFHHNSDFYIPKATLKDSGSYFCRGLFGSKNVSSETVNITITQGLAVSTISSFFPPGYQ
T5 sequence (P12314 16-288 limits assumed): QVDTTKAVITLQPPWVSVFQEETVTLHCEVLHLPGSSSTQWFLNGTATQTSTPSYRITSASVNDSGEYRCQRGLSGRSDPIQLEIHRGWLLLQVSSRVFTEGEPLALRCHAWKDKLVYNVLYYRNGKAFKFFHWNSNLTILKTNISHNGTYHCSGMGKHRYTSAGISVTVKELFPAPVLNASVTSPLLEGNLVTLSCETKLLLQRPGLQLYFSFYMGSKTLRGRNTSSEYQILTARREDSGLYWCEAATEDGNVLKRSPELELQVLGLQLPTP

IC50, IL-6 [nM] (IL-6 release from HeLa cells, 0.1 nM TNF) [1] | IC50, IL-8 [nM] (IL-8 release from HT1080 cells, 0.1 nM TNF) [1] | EC50 [2] [µM] | binding result (human Fcγ receptor IIIa) | fold reduction in binding activity compared to ATROSAB [3] [fold] | fold reduction in binding activity compared to Fab 13.7 [3] [fold] | Kd [4] [µM] | koff [4] [s⁻¹] | kon [4] [M⁻¹ s⁻¹] | binding result (human Fcγ receptor IIb) | fold more potent inhibition compared to ATROSAB, IL-6 release assay [5] [fold] | fold more potent inhibition compared to ATROSAB, IL-8 release assay [5] [fold] | binding result (human Fcγ receptor Ia) | binding result (complement protein C1q) | Binder | IC50, Cell death induction [nM] (Kym-1 cells, TNF-induced) [1] | fold more potent inhibition compared to ATROSAB, cell death induction assay [5] [fold]
37.1 | 12.7 |  |  |  |  |  |  |  |  |  |  |  |  | Fab 13.7 (Fab, V domains shown) VH: HVQLVQSGAEVKKPGSSVKVSCKASGYTFTDFYINWVRQAPGQGLEWIGEIVPSQGEAKYNDKFKARVTITADKSTSTAYMELSSLRSEDTAVYYCARWDFLDYWGQGTTVTVSS VL: DVQMTQSPSSLSASVGDRVTITCRSSQSLLHSNGNTYLHWYQQKPGKAPKLLIYTVSNRFSGVPSRFSGSGSGTDFTLTISSLQPEDFATYYCSQSTHVPYTFGGGTKVEIKR | 9.5 | 
54.5 | 24.2 | 0.0004 | no binding | 4 | 2 | 0.0027 | 0.00098 | 370000 | no binding | 3 | 3.5 | no binding | no binding | Atrosimab (antibody, The Fc is modified to reduce effector functions; Produced in CHO cells; also called Fv13.7-Fc1k; VHkC/VL1C heterodimer) heavy: HVQLVQSGAEVKKPGSSVKVSCKASGYTFTDFYINWVRQAPGQGLEWIGEIVPSQGEAKYNDKFKARVTITADKSTSTAYMELSSLRSEDTAVYYCARWDFLDYWGQGTTVTVSSGTGGGSGPSVFLFPPKPKDTLMISRTPEVTCVVVDVSHEDPEVKFNWYVDGVEVHNAKTKPREEQYNSTYRVVSVLTVLHQDWLNGKEYKCKVSNKGLPSSIEKTISKAKGQPREPSVFIFPPSDEQLKSGTASVVCLVNNFYPRDIAVEWEVDNALQSGNSQESVTEQDSKDSTYSLSSTLTLSKADYEKHKVYSCSVMHEALHNHYTQKSFNRGEC light: DVQMTQSPSSLSASVGDRVTITCRSSQSLLHSNGNTYLHWYQQKPGKAPKLLIYTVSNRFSGVPSRFSGSGSGTDFTLTISSLQPEDFATYYCSQSTHVPYTFGGGTKVEIKGTGGGSGPSVFLFPPKPKDTLMISRTPEVTCVVVDVSHEDPEVKFNWYVDGVEVHNAKTKPREEQYNSTYRVVSVLTVLHQDWLNGKEYKCKVSNKGLPSSIEKTISKAKGQPREPSVFPLAPSSKSTSGGTAALGCLVKDYFPSDIAVEWESGALTSGVHTFPAVLQSSGLYSLSSVVTVPSSSLGTQTYSCSVMHEALHNHYTQKSVEPKSC | 16.2 | 4
